The results in this text go back to patent US20020025558A1.

The target in the test is human MADr3 (human). In words: cell-based or functional assay.

Take TGF-β receptor: the signal to noise ratio of 33P phosphorylation at 0.01 units of TGF-β receptor, MADr3 coated at 750 ng/well came out at 50 and the signal to noise ratio of 33P phosphorylation on MADr3-coated FlashPlate was over 10.
